In IntAct's records for PubMed 35512704:

B1: Speckle-type POZ protein (Homo sapiens), O43791 (parent)
chain: MSRVPSPPPPAEMSSGPVAESWCYTQIKVVKFSYMWTINNFSFCREEMGEVIKSSTFSSGANDKLKWCLRVNPKGLDEESKDYLSLYLLLVSCPKSEVRAKFKFSILNAKGEETKAMESQRAYRFVQGKDWGFKKFIRRDFLLDEANGLLPDDKLTLFCEVSVVQDSVNISGQNTMNMVKVPECRLADELGGLWENSRFTDCCLCVAGQEFQAHKAILAARSPVFSAMFEHEMEESKKNRVEINDVEPEVFKEMMCFIYTGKAPNLDKMADDLLAAADKYALERLKVMCEDALCSNLSVENAAEILILADLHSADQLKTQAVDFINYHASDVLETSGWKSMVVSHPHLVAEAYRSLASAQCPFLGPPRKRLKQS
partner: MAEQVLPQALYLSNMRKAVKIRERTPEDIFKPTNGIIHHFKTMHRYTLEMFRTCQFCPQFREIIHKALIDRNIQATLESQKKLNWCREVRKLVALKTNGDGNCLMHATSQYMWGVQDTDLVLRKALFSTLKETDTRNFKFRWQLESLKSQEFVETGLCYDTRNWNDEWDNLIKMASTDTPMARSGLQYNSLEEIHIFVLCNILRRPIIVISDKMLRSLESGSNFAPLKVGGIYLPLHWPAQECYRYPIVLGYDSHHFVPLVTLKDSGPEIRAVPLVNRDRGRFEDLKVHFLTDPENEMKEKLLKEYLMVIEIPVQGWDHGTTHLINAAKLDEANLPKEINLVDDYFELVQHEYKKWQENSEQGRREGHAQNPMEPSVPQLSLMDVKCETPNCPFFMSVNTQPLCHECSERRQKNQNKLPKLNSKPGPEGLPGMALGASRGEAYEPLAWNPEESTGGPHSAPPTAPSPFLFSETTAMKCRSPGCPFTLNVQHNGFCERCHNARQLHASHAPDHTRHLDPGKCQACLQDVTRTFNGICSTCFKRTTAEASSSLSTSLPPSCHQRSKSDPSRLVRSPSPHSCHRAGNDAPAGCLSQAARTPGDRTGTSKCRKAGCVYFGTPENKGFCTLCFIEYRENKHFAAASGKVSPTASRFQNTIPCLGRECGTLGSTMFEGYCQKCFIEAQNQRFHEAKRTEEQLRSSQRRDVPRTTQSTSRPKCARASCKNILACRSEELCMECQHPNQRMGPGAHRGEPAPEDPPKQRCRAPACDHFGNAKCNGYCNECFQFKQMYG
B2: Speckle-type POZ protein (Homo sapiens), O43791 (parent)
chain: B1 chain
partner: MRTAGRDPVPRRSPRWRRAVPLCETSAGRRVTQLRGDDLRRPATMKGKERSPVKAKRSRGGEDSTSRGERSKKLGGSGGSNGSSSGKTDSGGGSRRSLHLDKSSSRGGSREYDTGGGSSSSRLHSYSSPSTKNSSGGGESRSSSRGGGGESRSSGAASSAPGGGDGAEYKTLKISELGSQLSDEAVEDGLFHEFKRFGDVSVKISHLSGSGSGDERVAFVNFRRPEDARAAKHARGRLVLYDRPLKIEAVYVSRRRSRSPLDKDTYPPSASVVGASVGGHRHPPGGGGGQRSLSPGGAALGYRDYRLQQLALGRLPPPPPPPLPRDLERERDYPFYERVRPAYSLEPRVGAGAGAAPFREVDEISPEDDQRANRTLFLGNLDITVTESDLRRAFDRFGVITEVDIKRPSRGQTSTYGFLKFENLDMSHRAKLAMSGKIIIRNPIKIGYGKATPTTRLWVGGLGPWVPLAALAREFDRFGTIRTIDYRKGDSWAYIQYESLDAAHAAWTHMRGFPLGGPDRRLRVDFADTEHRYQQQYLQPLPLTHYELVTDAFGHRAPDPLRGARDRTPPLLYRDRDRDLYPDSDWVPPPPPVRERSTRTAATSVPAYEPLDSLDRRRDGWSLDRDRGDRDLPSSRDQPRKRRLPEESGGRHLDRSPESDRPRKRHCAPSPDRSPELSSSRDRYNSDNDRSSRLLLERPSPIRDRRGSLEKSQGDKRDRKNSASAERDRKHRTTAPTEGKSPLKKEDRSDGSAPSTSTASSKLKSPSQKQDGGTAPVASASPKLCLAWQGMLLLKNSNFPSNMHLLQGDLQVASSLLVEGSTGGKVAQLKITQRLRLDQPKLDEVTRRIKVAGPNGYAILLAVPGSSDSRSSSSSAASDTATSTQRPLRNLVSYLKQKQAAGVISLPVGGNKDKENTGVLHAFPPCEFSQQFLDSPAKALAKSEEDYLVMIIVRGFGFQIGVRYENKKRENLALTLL
B3: Speckle-type POZ protein (Homo sapiens), O43791 (parent)
chain: B1 chain
partner: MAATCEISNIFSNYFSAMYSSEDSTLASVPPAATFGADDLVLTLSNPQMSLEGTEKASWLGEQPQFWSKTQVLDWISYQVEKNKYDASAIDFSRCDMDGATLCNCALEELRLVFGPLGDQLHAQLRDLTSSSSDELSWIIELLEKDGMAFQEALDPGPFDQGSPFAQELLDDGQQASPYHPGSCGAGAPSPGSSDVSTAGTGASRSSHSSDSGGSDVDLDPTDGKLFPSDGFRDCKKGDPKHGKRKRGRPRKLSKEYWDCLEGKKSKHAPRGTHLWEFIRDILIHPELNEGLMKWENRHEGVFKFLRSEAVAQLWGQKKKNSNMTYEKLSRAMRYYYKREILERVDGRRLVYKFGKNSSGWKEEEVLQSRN
B4: Speckle-type POZ protein (Homo sapiens), O43791 (parent)
chain: B1 chain
partner: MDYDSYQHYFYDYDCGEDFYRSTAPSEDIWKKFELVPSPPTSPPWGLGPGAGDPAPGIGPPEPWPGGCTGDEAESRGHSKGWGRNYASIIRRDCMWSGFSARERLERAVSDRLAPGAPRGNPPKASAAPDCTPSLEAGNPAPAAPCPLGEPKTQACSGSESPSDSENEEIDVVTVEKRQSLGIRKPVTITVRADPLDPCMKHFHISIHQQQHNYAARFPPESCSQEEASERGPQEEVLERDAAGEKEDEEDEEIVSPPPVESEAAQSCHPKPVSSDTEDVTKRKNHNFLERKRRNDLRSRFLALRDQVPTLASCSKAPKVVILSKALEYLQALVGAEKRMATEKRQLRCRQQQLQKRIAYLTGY
B5: Speckle-type POZ protein (Homo sapiens), O43791 (parent)
chain: B1 chain
partner: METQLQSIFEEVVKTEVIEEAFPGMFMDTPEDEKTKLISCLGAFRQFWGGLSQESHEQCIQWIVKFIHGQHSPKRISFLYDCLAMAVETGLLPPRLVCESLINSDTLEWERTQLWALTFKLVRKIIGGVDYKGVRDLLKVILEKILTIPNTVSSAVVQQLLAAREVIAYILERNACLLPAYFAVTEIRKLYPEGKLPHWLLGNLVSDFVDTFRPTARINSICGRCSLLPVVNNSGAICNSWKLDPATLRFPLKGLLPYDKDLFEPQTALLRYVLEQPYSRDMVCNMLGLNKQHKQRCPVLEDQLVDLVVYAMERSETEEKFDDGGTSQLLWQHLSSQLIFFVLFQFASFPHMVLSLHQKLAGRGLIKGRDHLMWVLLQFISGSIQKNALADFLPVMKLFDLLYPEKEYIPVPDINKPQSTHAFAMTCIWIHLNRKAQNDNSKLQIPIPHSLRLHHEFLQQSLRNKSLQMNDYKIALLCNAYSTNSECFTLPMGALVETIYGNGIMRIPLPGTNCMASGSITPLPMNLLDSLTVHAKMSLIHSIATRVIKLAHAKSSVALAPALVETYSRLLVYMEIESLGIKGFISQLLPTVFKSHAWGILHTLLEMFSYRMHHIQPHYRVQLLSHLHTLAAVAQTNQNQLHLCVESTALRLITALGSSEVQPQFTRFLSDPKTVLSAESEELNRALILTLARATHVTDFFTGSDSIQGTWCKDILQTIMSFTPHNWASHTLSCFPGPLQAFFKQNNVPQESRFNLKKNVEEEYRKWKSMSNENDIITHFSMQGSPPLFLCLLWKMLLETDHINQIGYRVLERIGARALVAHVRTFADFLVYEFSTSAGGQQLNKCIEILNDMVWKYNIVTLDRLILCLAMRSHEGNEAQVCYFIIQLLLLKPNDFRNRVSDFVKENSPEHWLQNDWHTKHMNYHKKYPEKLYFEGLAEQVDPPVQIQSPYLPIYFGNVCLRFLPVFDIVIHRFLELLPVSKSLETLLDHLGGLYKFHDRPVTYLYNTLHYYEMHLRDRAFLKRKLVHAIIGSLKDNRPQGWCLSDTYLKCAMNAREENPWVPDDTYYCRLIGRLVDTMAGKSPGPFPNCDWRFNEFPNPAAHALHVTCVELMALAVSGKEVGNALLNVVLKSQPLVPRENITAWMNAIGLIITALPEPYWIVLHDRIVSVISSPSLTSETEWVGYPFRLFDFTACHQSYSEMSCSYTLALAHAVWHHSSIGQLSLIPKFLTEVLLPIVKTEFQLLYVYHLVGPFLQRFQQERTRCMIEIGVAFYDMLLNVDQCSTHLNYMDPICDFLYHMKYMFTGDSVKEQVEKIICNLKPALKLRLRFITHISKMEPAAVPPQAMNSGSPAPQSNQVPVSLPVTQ
B6: Speckle-type POZ protein (Homo sapiens), O43791 (parent)
chain: B1 chain
partner: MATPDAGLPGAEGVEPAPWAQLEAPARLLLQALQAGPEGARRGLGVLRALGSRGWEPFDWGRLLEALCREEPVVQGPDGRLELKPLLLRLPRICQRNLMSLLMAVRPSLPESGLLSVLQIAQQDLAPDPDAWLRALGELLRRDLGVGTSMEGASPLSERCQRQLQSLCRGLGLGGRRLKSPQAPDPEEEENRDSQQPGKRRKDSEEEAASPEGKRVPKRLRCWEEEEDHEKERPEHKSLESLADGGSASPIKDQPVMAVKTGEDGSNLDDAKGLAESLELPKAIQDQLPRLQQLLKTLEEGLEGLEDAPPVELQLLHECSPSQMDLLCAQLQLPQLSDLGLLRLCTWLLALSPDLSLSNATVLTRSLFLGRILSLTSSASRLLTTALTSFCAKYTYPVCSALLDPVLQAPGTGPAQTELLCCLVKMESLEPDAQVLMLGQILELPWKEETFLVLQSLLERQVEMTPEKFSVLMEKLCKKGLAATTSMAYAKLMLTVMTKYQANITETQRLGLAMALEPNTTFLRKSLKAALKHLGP

Variants of: B1
Settings: with tnap3_human TNFAIP3, P21580

effect of a mutation on the interaction	Variant
with no effect	F133L

Variants of: B1
Settings: with tnap3_human TNFAIP3, P21580
Remark: another data set of the same source

effect of a mutation on the interaction	Variant
with no effect	Y87C

Variants of: B2
Settings: with rbm15_human RBM15, Q96T37

effect of a mutation on the interaction	Variant
with no effect	F133L

Variants of: B2
Settings: with rbm15_human RBM15, Q96T37
Remark: another data set of the same source

effect of a mutation on the interaction	Variant
with no effect	F133V

Variants of: B3
Settings: with elf3_human ELF3, P78545

effect of a mutation on the interaction	Variant
with no effect	Y87C

Variants of: B4
Settings: with mycl_human MYCL

effect of a mutation on the interaction	Variant
with no effect	F133L

Variants of: B4
Settings: with mycl_human MYCL
Remark: another data set of the same source

effect of a mutation on the interaction	Variant
with no effect	Y87C

Variants of: B5
Settings: with med23_human MED23, Q9ULK4

effect of a mutation on the interaction	Variant
with no effect	F133V

Variants of: B5
Settings: with med23_human MED23, Q9ULK4
Remark: another data set of the same source

effect of a mutation on the interaction	Variant
with no effect	F133L

Variants of: B6
Settings: with fance_human FANCE

effect of a mutation on the interaction	Variant
with no effect	Y87C
